In patent US20210069342A1 (LEGOCHEM BIOSCIENCES, published 2021):

Assays:
[1] = target: T1, human ROR1 expressed on the cell surface (human, UniProt Q01973 30-937); experiment: flow cytometry on 697 cells (ALL), C2E3 IgG, FITC anti-human Fc detection
T1 construct: whole, on cells; also called cell surface-expressed ROR1 antigen; ROR1 on JeKo-1, Mino, CHO-human ROR1, MC38-human ROR1 and other cancer cell lines
Experimental: (§1) FACS analysis (FACSCalibur, BD Biosciences) was used to analyze the binding of the anti-ROR1 antibody of the present invention to ROR1 in the above cell lines.
(§2) Specifically, the respective cell lines were dissociated and washed in PBS, then the numbers of cells were counted and adjusted to 2×10⁵ cells/200 PBS. Then, they were treated with 10 /mL of the antibody of clone name C2E3 of the ROR1 monoclonal antibodies prepared in Embodiment 3, and reacted for 1 hour at 4° C. After the reaction, the cells were washed in PBS, then FITC-marked constant region (Fc) specific antibody (Goat anti-human IgG FITC conjugate, Fc specific, Sigma, F9512, concentration 20 mg/ml) was suspended in 2 /1×10⁵ cells/200 PBS and reacted for 1 hour at 4° C. After reacting, the cells were washed with PBS and analyzed with the FACSCalibur equipment. The negative control was only treated with FITC-marked constant region (Fc) specific antibody. To compare the degree of ROR1 expression among the respective cancer cell lines, the quotient of dividing the shifted readings for the experimental group treated with the ROR1 monoclonal antibody (C2E3) of the present invention by the shifted readings for the control group (MFI Ratio: MFI of anti-ROR1/MFI or 2nd Ab) is indicated.

[2] = target: T1, human ROR1 expressed on the cell surface; experiment: flow cytometry on JeKo-1 cells (MCL), C2E3 IgG, FITC anti-human Fc detection
Experimental: as §1, §2

[3] = target: T1, human ROR1 expressed on the cell surface; experiment: flow cytometry on H460 cells (lung cancer), C2E3 IgG, FITC anti-human Fc detection
Experimental: as §1, §2

[4] = target: T1, human ROR1 expressed on the cell surface; experiment: flow cytometry on AGS cells (gastric cancer), C2E3 IgG, FITC anti-human Fc detection
Experimental: as §1, §2

[5] = target: T1, human ROR1 expressed on the cell surface; experiment: flow cytometry on HCC70 cells (breast cancer), C2E3 IgG, FITC anti-human Fc detection
Experimental: as §1, §2

[6] = target: T1, human ROR1 expressed on the cell surface; experiment: flow cytometry on Jurkat cells (T cell leukemia), C2E3 IgG, FITC anti-human Fc detection
Experimental: as §1, §2

[7] = target: T1, human ROR1 expressed on the cell surface; experiment: flow cytometry on MDA-MB-468 cells (breast cancer), C2E3 IgG, FITC anti-human Fc detection
Experimental: as §1, §2

[8] = target: T2, recombinant mouse ROR1 protein (Acrobiosystems, RO1-M5221) (mouse, UniProt Q9Z139 30-403); experiment: ELISA, wells coated with recombinant mouse ROR1 protein, IgG titrated, HRP anti-Fab detection, OD (450-650nm)
T2 construct: Bought protein; also called mouse ROR1 antigen
T2 sequence (Q9Z139 30-403 limits assumed): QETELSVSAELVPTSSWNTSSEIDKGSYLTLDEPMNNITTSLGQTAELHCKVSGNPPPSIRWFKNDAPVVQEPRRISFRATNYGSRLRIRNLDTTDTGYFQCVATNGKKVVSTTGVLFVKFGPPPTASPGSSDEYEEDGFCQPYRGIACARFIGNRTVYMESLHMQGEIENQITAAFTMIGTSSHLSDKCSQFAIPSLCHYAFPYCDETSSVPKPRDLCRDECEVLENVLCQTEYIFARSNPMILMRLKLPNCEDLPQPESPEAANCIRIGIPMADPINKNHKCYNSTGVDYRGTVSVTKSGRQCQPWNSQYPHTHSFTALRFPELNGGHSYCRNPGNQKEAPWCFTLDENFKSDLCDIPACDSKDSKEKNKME
Experimental: Anti-ROR1 antibody antigen binding affinity was assessed using an ELISA-based solution binding assay. Specifically, a 96-well microtiter plate (Nunc-Immuno Plates), NUNC) was coated for 16 hours at 4° C. with the ROR1 protein described below at a concentration of 1 in PBS solution, and non-specific binding sites were blocked for 2 hours with 3% BSA (bovine serum albumin). Here, the ROR1 protein used was, in the case of human ROR1, the ROR1-Fc or recombinant human ROR1-His (Sino Biological, 13968-H08H) of Embodiment 1. The ROR1-His used in ELISA, as stated in the above sentence, was a protein from the Sino Biological company (13968-H08H), and the ROR1-His of Embodiment 1 or recombinant mouse ROR1 protein was used (Acrobiosystems, RO1-M5221-100 )
Subsequently, the anti-ROR1 antibodies prepared in Embodiment 3 were added at the concentrations stated in FIG. 2 to a 96-well microtiter plate, and binding capacity was analyzed using ELISA as follows. Specifically, after incubating for 2 hours, the plate was washed 5 times with PBS containing 0.05% Tween 20, then HRP-conjugated Fab multiclonal antibody reagent (Perce, 31414) was diluted to 1:10,000 and placed in the washed microtiter plate. After reacting for 1 hour at 37° C., the ROR1 antibodies bonded to the plate were detected. After the reaction, color development was performed using TMB (Tetramethylbenzidine, Sigma, T0440). The enzymatic reaction was stopped using 0.5 mol/L sulfuric acid, and absorbance at 450 nm and 650 nm was measured (450 nm-650 nm) using a micro plate reader (Molecular Device)

T1 sequence (Q01973 30-937): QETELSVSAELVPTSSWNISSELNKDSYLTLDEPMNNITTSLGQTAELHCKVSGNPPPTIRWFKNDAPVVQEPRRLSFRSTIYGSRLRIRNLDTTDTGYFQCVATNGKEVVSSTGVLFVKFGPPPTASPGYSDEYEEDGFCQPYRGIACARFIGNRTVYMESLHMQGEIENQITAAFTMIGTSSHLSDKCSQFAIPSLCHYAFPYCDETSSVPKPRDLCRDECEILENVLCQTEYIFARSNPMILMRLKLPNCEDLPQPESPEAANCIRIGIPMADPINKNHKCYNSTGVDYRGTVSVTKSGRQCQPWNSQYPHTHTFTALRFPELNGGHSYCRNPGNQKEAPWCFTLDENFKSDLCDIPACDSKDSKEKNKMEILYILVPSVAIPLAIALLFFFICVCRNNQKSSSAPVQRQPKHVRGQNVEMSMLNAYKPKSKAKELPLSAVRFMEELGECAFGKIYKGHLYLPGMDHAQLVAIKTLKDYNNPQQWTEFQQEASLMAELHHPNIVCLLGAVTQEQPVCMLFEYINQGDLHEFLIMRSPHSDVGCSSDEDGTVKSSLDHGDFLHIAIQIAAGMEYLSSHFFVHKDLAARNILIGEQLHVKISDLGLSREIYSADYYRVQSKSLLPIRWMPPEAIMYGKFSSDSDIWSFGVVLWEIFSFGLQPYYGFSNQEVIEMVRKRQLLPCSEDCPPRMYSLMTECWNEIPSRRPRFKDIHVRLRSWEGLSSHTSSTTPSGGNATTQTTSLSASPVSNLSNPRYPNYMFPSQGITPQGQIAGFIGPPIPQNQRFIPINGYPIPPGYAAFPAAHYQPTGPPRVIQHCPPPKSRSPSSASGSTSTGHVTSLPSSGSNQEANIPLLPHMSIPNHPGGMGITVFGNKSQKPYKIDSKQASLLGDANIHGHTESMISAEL

Mean Fold Ratio (MFI of anti-ROR1 / MFI of 2nd Ab) [1]: 12 | Mean Fold Ratio (MFI of anti-ROR1 / MFI of 2nd Ab) [2]: 4 | Mean Fold Ratio (MFI of anti-ROR1 / MFI of 2nd Ab) [3]: 10.9 | Mean Fold Ratio (MFI of anti-ROR1 / MFI of 2nd Ab) [4]: 12.3 | Mean Fold Ratio (MFI of anti-ROR1 / MFI of 2nd Ab) [6]: 1.7 | Mean Fold Ratio (MFI of anti-ROR1 / MFI of 2nd Ab) [7]: 6.4 | EC50 (read off the curve) [8]: ~0.3 nM
B1: anti-ROR1 IgG antibody C2E3 (antibody, V domains shown)
VH: EVQLLESGGGLVQPGGSLRLSCAASGFTFSNYAMSWVRQAPGKGLEWVSSISHNSGSTYYADSVKGRFTISRDNSKNTLYLQMNSLRAEDTAVYYCAKFISARKSLGRSYSNGMDVWGQGTLVTVSS
VL: QSVLTQPPSASGTPGQRVTISCTGSSSNIGSNDVTWYQQLPGTAPKLLIYADSKRPSGVPDRFSGSKSGTSASLAISGLRSEDEADYYCGTWDYSLSGYVFGGGTKLTVLG
notes: Full IgG form (human IgG1 constant region, lambda light chain), expressed in CHO-S cells
Mean Fold Ratio (MFI of anti-ROR1 / MFI of 2nd Ab) [5]: 3.8
